# Source: patent publication US7888090B2, “Mutants of O6-alkylguanine-DNA alkyltransferase” (Ecole Polytechnique Federale de Lausanne, priority 2004, dated 2011)
# Columns and labels:
# [1] = Periplasmic expression / stability under oxidizing conditions; design: species or system E. coli
# Method: The activities towards AGT substrates are measured after purification without addition of reducing agents such as dithiothreitol or beta-mercaptoethanol. Alternatively, the activities of mutant AGT and wild type human are compared after their export into cellular compartments with oxidising redox potential (e.g. the periplasm of E. coli due to their fusion to appropriate signal sequences. Activity towards AGT substrates under reducing and oxidising conditions is compared by performing the reactions in the presence or absence of reducing agents such as dithiothreitol or beta-mercaptoethanol.
# The mutant AGT gene of Example 1 is amplified and cloned as described in Example 1 with the oligonucleotides SEQ ID NO:3, SEQ ID NO:10 and SEQ ID NO:4, SEQ ID NO:9 causing the further mutation Cys62Ala in the gene upon their incorporation by PCR. Protein expression, purification and determination of yield is carried out as described in Example 1. The mutant gene is PCR amplified with the primers SEQ ID NO:11, SEQ ID NO:12 that contain SfiI restriction sites to subclone the gene in fusion to the g3 protein of filamentous phage in the vector pAK100 (Krebber et al., J Immunol Methods 201:35-55, 1997). […] The supernatant is directly subjected to quantification of protein yield via SDS-PAGE and activity assays as described in Example 1.
# Stability under oxidizing conditions: The mutant gene is PCR amplified with the primers SEQ ID NO:11 and SEQ ID NO:28 to subclone the gene into pAK100, as described in Example 2. […] To compare the reactivity of […] (Juillerat et al., Chem Biol 10:313-317, 2003) and the mutant, samples are incubated with 1 µM BG-Bt for 50 min, quenched with SDS-Laemmli buffer and analyzed by western blotting using neutravidin peroxidase conjugate (Pierce) or a monoclonal mouse anti-FLAG IgG antibody (M2, Sigma) and a secondary anti-mouse-IgG::HRP conjugate, and Renaissance reagent plus (NEN). […] The anti-FLAG IgG antibody is used to estimate the total amount of soluble AGT protein, whereas neutravidin quantifies the reactive portion of it. […]
# [2] = Competition of N^9-substituted and N^9-unsubstituted O^6-benzylguanine substrates; format: biochemical; conditions: comparator not stated
# Method: Such N^9-substituted O^6-alkylguanine substrates are the natural substrates of the wild type AGT. The ability of wild type AGT or mutant AGT to react with N^9-modified O^6-alkylguanine substrates is measured as the rate of its reaction with such substrates, e.g. with the low molecular weight N^9-cyclopentyl-O^6-benzylguanine in presence of biotinylated N^9-unsubstituted O^6-alkylguanine substrates in competition experiments. Subsequently, samples are subjected to Western blotting and detection with streptavidin derivates to obtain kinetic constants for these substrates. Alternatively, the reactivity towards such substrates is measured as the inhibition of the reaction of AGT with BG-Cy3. The reaction of AGT with BG-Cy3 is followed by an increase of Cy3 fluorescence intensity upon binding to AGT, after preincubation or in direct competition with the N^9-modified O^6-alkylguanine substrate.
# Selected AGT mutants are subcloned into pGEX2T, expressed, purified and characterized as described in Example 1. Discrimination between N^9 substituted and N^9 unsubstituted O^6-benzylguanine substrates is evaluated by competition experiments for purified mutated GST-AGT in vitro with N^9-substituted and N′-unsubstituted O^6-benzylguanine. Aliquots of 0.2 μM GST-AGT are incubated with varying concentrations of N^9 substituted substrate (0, 0.5, up to 100 µM) and 0.5 µM biotinylated O^6-benzylguanine (BG-Bt, substance 3a of Juillerat et al., Chem Biol 10:313-317, 2003) in 50 mM HEPES pH 7.3 and 1 mM DTT at room temperature. After 45 min reactions are quenched by the addition of SDS-Laemmli buffer and heat denaturation. Samples are subjected to SDS-PAGE and Western blotting analysis (neutravidin-peroxidase conjugate (PIERCE), Renaissance reagent plus (NEN)). The intensity of the corresponding bands is quantified by a Kodak Image Station 440.
# [3] = Activity assay with biotinylated O^6-benzylguanine (BG-Bt), Western blotting; format: biochemical; conditions: statement in words
# Method: Activity towards O^6-benzylguanine substrates is measured as described by Juillerat et al., Chem Biol 10:313-317, 2003.
# Activity assay: Purified mutated GST-AGT is incubated in vitro with a biotinylated O^6-benzylguanine (BG-Bt, substance 3a of Juillerat et al., Chem Biol 10:313-317, 2003). In a total reaction volume of 80 […]I, 0.2 µM GST-AGT are incubated with 1 µM substrate in 50 mM HEPES pH 7.2 and 1 mM DTT at room temperature. At several points of time an aliquot is quenched with 1 mM O^6-benzylguanine (Sigma) in SDS-Laemmli buffer and subjected to Western blotting analysis (neutravidin-peroxidase conjugate (PIERCE), Renaissance reagent plus (NEN)). The intensity of the corresponding bands is quantified by a Kodak Image Station 440.
# [4] = Expression yield of soluble GST-AGT fusion protein; design: species or system E. coli; conditions: comparator not stated
# Method: Expression yield is measured in E. coli or in any other of the standard production cells for genetically modified proteins, e.g. yeast, or preferably insect cells, CHO cells or HeLa cells. For quantifying expression yield, AGT fusion proteins may be chosen such that the fusion partner allows easy purification and quantification. For example, expression yield in E. coli is determined by measuring and comparing the yield of soluble and insoluble GST-wild type AGT fusion protein and GST-mutant AGT fusion protein from parallel E. coli expression cultures. Samples of the soluble fractions and insoluble fractions (i.e. the inclusion bodies) after cell lysis are subjected to SDS-PAGE, and the band staining intensities of the corresponding AGT fusion proteins are compared. Soluble protein is quantified after purification of the fusion protein from cell extracts by affinity chromatography (e.g. for GST-AGT fusion proteins by glutathione sepharose) by subjecting the purified fractions to a protein concentration assay (Bradford, Anal Biochem 72:248-54, 1976). The expression yield of similar proteins in the soluble fraction (difference in point mutations) can be used as a measure for protein stability in the unpurified as well as the purified state (Ohage et al., J Mol Biol 291:1119-1128, 1999; Wirtz et al., Protein Sci 8: 2245-50, 1999). Therefore, this is taken as a measure of folding stability and aggregation tendency.
# Protein expression from this vector is carried out in E. coli strain BL21. An exponentially growing culture is induced with 0.5 mM IPTG, and the expression is carried out for 3.5 h at 24° C.
# Purification: The harvested cells are resuspended in a buffer containing 50 mM phosphate, 0.5 M NaCl, 1 mM DTT, supplemented with 1 mM PMSF and 2 μg/ml aprotinin, and disrupted by lysozyme and sonification. The cell debris are separated by centrifugation at 40000×g. The extract is applied to pre-equilibrated glutathione sepharose (Amersham) which is then washed with 20 bed volumes (50 mM phosphate, 0.5 M NaCl, 1 mM DTT). The mutated GST-AGT fusion protein is eluted with 10 mM reduced glutathione in 50 mM Tris·HCl pH 7.9. The purified protein is dialyzed against 50 mM HEPES pH 7.2; 1 mM DTT; 30% glycerol and then stored at −80° C.
# Determination of protein yield: Purity and relative amounts of the GST-AGT fusion proteins are compared by running samples on SDS-PAGE. UV spectra of the pure fractions are recorded using a Perkin Elmer Lambda 10. For protein samples containing no significant amount of DNA, the extinction at 280 nm as a measure of protein content is compared to that of wild type hAGT or PGEG-hAGT that were purified under the same conditions.
molecule,measurement,setting,value
"Cys62Ala, Gln115Ser, Gln116His, Lys125Ala, Ala127Thr, Arg128Ala, Cys150Asn, Ser151Ile, Ser152Asn, Asn157Gly, Ser159Glu, truncated after Gly182: particularly preferred hAGT mutant with the listed … (protein, UniProt P16455 1-207, looked up, variant C62A Q115S Q116H K125A A127T R128A C150N S151I S152N N157G S159E del183-207) Methylated-DNA--protein-cystei …: MDKDCEMKRTTLDSPLGKLELSGCEQGLHEIKLLGKGTSAADAVEVPAPAAVLGGPEPLMQATAWLNAYFHQPEAIEEFPVPALHHPVFQQESFTRQVLWKLLKVVKFGEVISYSHLAALAGNPAATAAVGGAMRGNPVPILIPCHRVVNINGAVGGYEGGLAVKEWLLAHEGHRLGKPGLG",sensitivity to oxidation,[1],reduced sensitivity to oxidation
same,reduced reactivity towards O^6-alkyl-N^9-deoxyribosylguanine or N^9-cyclopentyl-O^6-benzylguanine,[2],retain reactivity
same,activity towards O^6-benzylguanine substrates,[3],increased reactivity
same,expression yield in E. coli,[4],increased expression yield
